US20120141464A1 (ZENYTH OPERATIONS, published 2012)
Values belong to the binder of their own block, whether it stands above or below them.

Experiments:
[1] = biological target: T1, recombinant purification-tagged human GM-CSF receptor α extracellular domain (human, UniProt P15509 23-320); assay: SPR (BIAcore 2000); IgG4 captured on protein A, tagged receptor ECD as analyte; 1:1 Langmuir fit
T1 construct: Amino acids 1 to 298 of the mature receptor; also called purified GM-CSFRα extracellular domain; soluble extracellular domain of GM-CSFRα; not shown: N-terminal purification tag; Flag-tagged
T1 sequence: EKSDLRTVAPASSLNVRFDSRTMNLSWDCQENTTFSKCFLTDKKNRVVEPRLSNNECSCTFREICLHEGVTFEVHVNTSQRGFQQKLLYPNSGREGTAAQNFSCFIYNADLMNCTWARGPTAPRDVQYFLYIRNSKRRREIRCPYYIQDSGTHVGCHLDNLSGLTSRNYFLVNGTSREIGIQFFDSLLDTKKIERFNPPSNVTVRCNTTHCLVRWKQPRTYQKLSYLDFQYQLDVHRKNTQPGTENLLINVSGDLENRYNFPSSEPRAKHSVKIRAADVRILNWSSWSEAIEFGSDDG

human GM-CSFRα [2] = biological target: T2, human GM-CSFRα (human, UniProt P15509 23-400); assay: cell-based or functional assay
T2 sequence: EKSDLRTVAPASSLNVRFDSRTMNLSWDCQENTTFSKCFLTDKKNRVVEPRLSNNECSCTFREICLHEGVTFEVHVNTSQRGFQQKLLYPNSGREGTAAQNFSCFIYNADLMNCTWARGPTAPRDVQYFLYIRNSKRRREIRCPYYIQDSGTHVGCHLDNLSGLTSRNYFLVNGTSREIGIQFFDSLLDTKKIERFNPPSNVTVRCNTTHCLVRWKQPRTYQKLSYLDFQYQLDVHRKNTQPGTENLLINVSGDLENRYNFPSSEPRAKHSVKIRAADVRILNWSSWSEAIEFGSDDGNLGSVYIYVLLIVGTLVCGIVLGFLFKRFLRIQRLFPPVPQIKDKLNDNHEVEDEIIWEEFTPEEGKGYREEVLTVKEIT

human GM-CSFRα [3] = biological target: T2, human GM-CSFRα; assay: cell-based or functional assay; remark: listed apart in the source
cynomolgus GM-CSFRα = cynomolgus GM-CSFRα (cynomolgus); assay: cell-based or functional assay
human GM-CSFRα [4] = biological target: T2, human GM-CSFRα; assay: cell-based or functional assay; remark: listed apart in the source
human GM-CSFRα [5] = biological target: T2, human GM-CSFRα; assay: cell-based or functional assay; remark: listed apart in the source

Kd [1]: 0.376 nM | IC50, human granulocyte shape change assay (7 pM human GM-CSF) (human GM-CSFRα [2]): 20.7 pM | IC50, monocyte TNFα release assay (1 nM human GM-CSF) (human GM-CSFRα [3]): 0.103 nM | IC50, cynomolgus granulocyte shape change assay (7 pM human GM-CSF) (cynomolgus GM-CSFRα): 3.2 pM | IC50, TF-1 proliferation assay (7 pM human GM-CSF) (human GM-CSFRα [4]): 15 pM
B1: Antibody 2 (antibody, V domains shown)
VH: QVQLVQSGAEVKKPGASVKVSCKISGHSLSELSIHWVRQTPTKGFEWMGGFDPEENEIVYAQRFQGRVTMTEDTSIDTAYLTLSSLRSDDTAVYYCSIVGSFSGPALRPWGKGTMVTVSS
VL: QAVLTQPSSVSGAPGQRVTISCTGSGSNIGAPYDVSWYQQLPGTAPKLLIYHNNKRPSGVPDRFSASKSGTSASLAITGLQADDEADYYCQSYDSSLSGSVFGGGTKVTVL
notes: also called Antibody 02; Ab2

IC50, colony formation assay (10 ng/ml human GM-CSF) (human GM-CSFRα [5]): ~0.08 µg/mL | IC50, cynomolgus granulocyte shape change assay (7 pM human GM-CSF) (cynomolgus GM-CSFRα): 1.73 pM
B2: Antibody 6 (as listed; germlining state in the experiment not stated) (antibody, V domains shown)
VH: QVQLVQSGAEVKKPGASVKVSCKVSGYTLTELSIHWVRQAPGKGLEWMGGFDPEENEIVYAQRFQGRVTMTEDTSTDTAYMELSSLRSEDTAVYYCAIVGSFSPLTLGLWGQGTMVTVSS
VL: QSVLTQPPSVSGAPGQRVTISCTGSGSNIGAPYDVSWYQQLPGTAPKLLIYHNNKRPSGVPDRFSGSKSGTSASLAITGLQAEDEADYYCATVEAGLSGSVFGGGTKLTVL
